Source: US6635627B1, “Anti-cancer products for treating cystic fibrosis” (Centre National de la Recherche Scientifique (CNRS), priority 1997, dated 2003)

Assay: Retention on affinity column grafted with glutathione (GSH) after thrombin cutting
Type: binding
Details: after cutting GST-NBF1 with thrombin; coelutes with GST
Description: The suspension was centrifuged at 17,000 rpm for 40 minutes, and at 4° C., on a JA20 rotor (Beckman). The supernatant was incubated with 5 ml of a glutathione support (G4B Pharmacia) at ambient temperature for 30 minutes. The column was filled. The fusion protein was eluted with a 10 mM glutathione, 50 mM Tris, pH 8, solution at a flow rate of 0.05 ml/min. The fractions absorbing at 280 nm were collected and applied in portions of 500 μl to an ion exchange column (MonoQ, Pharmacia). The column was eluted with a 150 mM solution of NaCl and a 42 kD protein was identified on an SDS-PAGE gel and then confirmed by mass spectroscopy. The production yields of soluble fusion protein are 5 mg/l of culture.
Following purification, the fusion protein sample was dialyzed against a buffer (150 mM NaCl, 2.5 mM CaCl2, 50 mM Tris/HC1) at pH=8. Human thrombin (T7009, Sigma) was added to give a final concentration of 5u per mg of fusion protein. The mixture was incubated at ambient temperature for 30 minutes. The products of the cutting reaction were characterized on an SDS-PAGE gel and a protein having a molecular weight of 18 kD (corresponding to the expected molecular weight of NBF1) was observed.
The GST-NBF1 fusion protein is efficiently recognized by an anti-NBF1 antibody (MATG 1061, distributed by Transgene). The affinity of this recombinant protein for ATP was verified. […]

B1: NBF1: Recombinant NBF1 domain of the CFTR protein (sequence R450-I586), 18 kD, released from GST fusion by thrombin (protein, UniProt P13569 450-586, looked up, fragment)
chain: RGQLLAVAGSTGAGKTSLLMVIMGELEPSEGKIKHSGRISFCSQFSWIMPGTIKENIIFGVSYDEYRYRSVIKACQLEEDISKFAEKDNIVLGEGGITLSGGQRARISLARAVYKDADLYLLDSPFGYLDVLTEKEI
behaviour on column of immobilized GSH: retained on the GSH column
